Target: GFP-Rab13-2 (N. benthamiana)
Test: co-IP

level of binding (α-FLAG/α-GFP) with RFP-Pc12 expressed: 1.3
Substance: REP-3xFLAG (Rab escort protein 1) (natural protein)
